# From publication PMC6099927, “Aptamer Display on Diverse DNA Polyhedron Supports”
# B1: aptamer pentagon-based pyramid (mixed)
# DNA 1: TTCGGCCGATCTGGCATAGGCTTCCCCAACGTTATCTCGCGTGGCGTACGG
# DNA 2: TTGATCGGCCGTTCCGCGCGTCCTGCCCTAGACGCCCCTGGGCCC
# DNA 3: TTGCCTATGCCTGGGCCCAGGGGCGTCTTGGAGTCAACAGGTCGG
# DNA 4: TTCGTTGGGGATCCGACCTGTTGACTCCTCCCGTCGACCAAAGAT
# DNA 5: TTCGCGAGATATATCTTTGGTCGACGGGTCTCAGCCCTGACCCCA
# DNA 6: CTGGGCGGTAGAACCATAGTGACCCAGCCGTCTACTTGGGCAGGACGCGCGGATCCGTACGCCTTGGGGTCAGGGCTGAG
# B2: aptamer with double-stranded spacer (C2a/C2b) (mixed)
# DNA 1: CTGGGCGGTAGAACCATAGTGACCCAGCCGTCTACTTTGGGGCCGGGCGCGCCCCGGTT
# DNA 2: TTCCGGGGCGCGCCCGGCCCCA
# B3: aptamer with single-stranded spacer (C2a) (structured_DNA)
# DNA: B2 DNA 1
# B4: aptamer-tetrahedron 1 (mixed)
# DNA 1: TTTTGCGGCTGGAGCCATGTCATCAGGGGCACGTCTCTAGGACGCGGCCGGGTCT
# DNA 2: TTCATGGCTCCAGCCGCAATGACGGGACCGTGTGCCTGAGC
# DNA 3: TTGAGACGTGCCCCTGATGTGCTCAGGCACTGCAGGGCAAA
# DNA 4: CTGGGCGGTAGAACCATAGTGACCCAGCCGTCTACTTCGGTCCCGTCTAGACCCGGCCGCGTCCTTTTTGCCCTGC
# B5: aptamer-tetrahedron 3 (mixed)
# DNA 1: B4 DNA 1
# DNA 2: TTCATGGCTCCAGCCGCAATTGATCATTGAGTGTCGGTGGCGATGTCTCCCCGATAAAGCGTATGTTATAAGTCT
# DNA 3: TTGAGACGTGCCCCTGATGTAGACTTATAACATACGCTTTATCGGGGTCCGGAGCCATCACACCTGGATCAGGAC
# DNA 4: CTGGGCGGTAGAACCATAGTGACCCAGCCGTCTACTTGACATCGCCACCGACACTCAATGATCATAGACCCGGCCGCGTCCTTGTCCTGATCCAGGTGTGATGGCTCCGG
# B6: aptamer-tetrahedron 2 (mixed)
# DNA 1: B4 DNA 1
# DNA 2: TTCATGGCTCCAGCCGCAATTATCTAGCGATCTCACCTCGTCAAGGGTAAGCCCG
# DNA 3: TTGAGACGTGCCCCTGATGTCGGGCTTACCCTTGACGTGTGGTAATTGTTGTGTA
# DNA 4: CTGGGCGGTAGAACCATAGTGACCCAGCCGTCTACTTGGTGAGATCGCTAGATATAGACCCGGCCGCGTCCTTTACACAACAATTACCAC
# B7: PfLDH aptamer alone (Apt) (structured_DNA)
# DNA: CTGGGCGGTAGAACCATAGTGACCCAGCCGTCTAC
# B8: aptamer square-based pyramid (mixed)
# DNA 1: TTATGTAACCGTGTCACTCCAGGTGTACTTCCTAAAATCGCGCGACCAG
# DNA 2: TTCACGGTTACATTCTGTGTTGGCACGGCGTCGTCCGGGTGGCGGTT
# DNA 3: TTCACCTGGAGTGTAACCGCCACCCGGACGTCGTTCGTCAAATAGTG
# DNA 4: TTTTTTAGGAAGTTCACTATTTGACGAACGTGCTATGCCGCGCGCCT
# DNA 5: CTGGGCGGTAGAACCATAGTGACCCAGCCGTCTACTTCGCCGTGCCAACACAGTCTGGTCGCGCGTAGGCGCGCGGCATAGC
# Columns and labels:
# [1] = molecular target: T1, Plasmodium falciparum lactate dehydrogenase (PfLDH) (Plasmodium falciparum, UniProt Q27743 1-316); test: APTEC plate capture assay; 2x PBS binding buffer (recombinant PfLDH), 1 h, streptavidin plate coated with DNA, PBST (0.1% Tween-20) washes, absorbance 570 nm; blood: 1:1 with PBS 0.5% Triton X-100; pH and temperature not stated; conditions: protein: recombinant, tags: His (HisTrap purified), chain copies: 4
# [2] = molecular target: T1, Plasmodium falciparum lactate …; test: APTEC plate capture assay; higher signal than aptamer alone; 2x PBS binding buffer (recombinant PfLDH), 1 h, streptavidin plate coated with DNA, PBST (0.1% Tween-20) washes, absorbance 570 nm; blood: 1:1 with PBS 0.5% Triton X-100; pH and temperature not stated; conditions: protein: recombinant, tags: His (HisTrap purified), chain copies: 4
# [3] = molecular target: T1, Plasmodium falciparum lactate …; test: APTEC plate capture assay (enzyme activity of captured PfLDH), logistic fit; 2x PBS binding buffer (recombinant PfLDH), 1 h, streptavidin plate coated with DNA, PBST (0.1% Tween-20) washes, absorbance 570 nm; blood: 1:1 with PBS 0.5% Triton X-100; pH and temperature not stated; conditions: protein: recombinant; tags: His (HisTrap purified); chain copies: 4; label: 5' biotin; single strand
# T1 sequence (Q27743 whole entry): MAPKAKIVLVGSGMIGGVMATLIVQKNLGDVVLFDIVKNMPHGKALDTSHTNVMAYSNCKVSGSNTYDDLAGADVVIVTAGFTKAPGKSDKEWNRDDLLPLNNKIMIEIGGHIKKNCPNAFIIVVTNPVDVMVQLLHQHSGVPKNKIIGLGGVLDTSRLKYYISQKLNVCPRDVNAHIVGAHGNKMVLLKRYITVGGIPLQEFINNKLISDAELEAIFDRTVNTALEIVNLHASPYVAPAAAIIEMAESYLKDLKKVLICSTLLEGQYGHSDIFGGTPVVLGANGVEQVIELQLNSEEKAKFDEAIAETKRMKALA
binder,measurement,setting,value
B1,Kd,"[1]; label: 5' biotin on P2a-P2e, pentagon-based pyramid of 6 strands",14.8 ± 0.8 nM
B2,binding result,"[2]; label: 3' biotin on C2a, 20 bp spacer duplex, 5' aptamer overhang",binds
B3,binding result,"[2]; label: 3' biotin, single strand",binds
B4,Kd,"[1]; label: 5' biotin on Ta, T1b, T1c, tetrahedron of 4 strands, height 2.65 nm",1.22 ± 0.13 nM
B5,Kd,"[1]; label: 5' biotin on Ta, T3b, T3c, tetrahedron of 4 strands, height 10.55 nm",1.61 ± 0.1 nM
B6,Kd,"[1]; label: 5' biotin on Ta, T2b, T2c, tetrahedron of 4 strands, height 6.72 nm",2.09 ± 0.15 nM
B7,Kd,[3],12.7 ± 0.71 nM
B8,Kd,"[1]; label: 5' biotin on P1a-P1d, square-based pyramid of 5 strands",5.99 ± 0.64 nM
